This note sets out measurements from patent US20190345227A1.

This assay deals with SpyCatcher-elastin-CarHC-elastin-SpyCatcher. In words: cell-based or functional assay.

In the case of mCherry, the free mCherry detected in the supernatant of the AAA+BCB hydrogel, under both dark and bright conditions amounted to 50%.
